Assay results reported in US20210107943A1 (UNIVERSITY OF FLORIDA RESEARCH FOUNDATION, published 2021).

T1: mCATCH(-) peptide, Ac-EQEPEPEPEQE-Am
T1 construct: Mutant with proline in place of the phenylalanine residues; also called mutant of CATCH(-)
T1 peptide: Ac-EQEPEPEPEQE-NH2

B1: CATCH(-) peptide, Ac-EQEFEFEFEQE-Am (peptide)
peptide: Ac-EQEFEFEFEQE-NH2
notes: also called CATCH (6-); negative peptide segment
B2: mCATCH(+) peptide, Ac-QQKPKPKPKQQ-Am (peptide)
peptide: Ac-QQKPKPKPKQQ-NH2
notes: Mutant with proline in place of the phenylalanine residues; also called mutant of CATCH(+)
B3: CATCH(+) peptide, Ac-QQKFKFKFKQQ-Am (peptide)
peptide: Ac-QQKFKFKFKQQ-NH2
notes: also called CATCH (4+); positive peptide segment

Legend:
[1] = target: B2; test: ThT fluorimetry, equimolar mixture
Method: (§1) Thioflavin T (ThT) Assay. A ThT stock solution containing 0.8 mg/mL of thioflavin T (Acros) in 1× phosphate-buffered saline (PBS) (137 mM NaCl, 2.7 mM, KCl, 10 mM Na₂HPO₄ and 1.8 mM KH₂PO₄, pH 7.4) was filtered through a 0.22 μm syringe filter (Millex), and further diluted 1:10 with 1× PBS to create a working solution. Peptide samples were mixed with the ThT working solution at a 1:10 (v/v) ratio, added to a black 96-well plate (Corning), and analyzed with a Molecular Devices SpectraMax M3 spectrophotometer (excitation 450, emission 482 nm). All samples were run in triplicate, with the mean and standard deviation of these samples reported.
(§2) Nanofiber preparation. Stock solutions of CATCH(−) and CATCH(+) were prepared by dissolving lyophilized peptides in 1× PBS to a final concentration of 500 μM. Peptide concentration was confirmed using Phe absorbance (λ=260 nm). CATCH peptides were then mixed at a 1:1 (v/v) ratio and incubated overnight for formation of nanofibers, unless stated otherwise.

[2] = target: the molecule itself; test: ThT fluorescence microscopy and the data taken together (self-assembly)
Method: For samples containing only CATCH peptides, ThT was mixed with samples at a 1:1 (v/v) ratio, 5 μL of each sample was placed onto a glass microscope slide, samples were covered with a cover slip, and samples were viewed using a GFP filter set. For samples containing CATCH peptides and CATCH(−)GFP, 0.75 μM CATCH(−)GFP was mixed with 200 μM CATCH(+) and 187.5 μM CATCH(−), unless otherwise specified. 5 μL of each sample was placed onto a glass microscope slide, samples were covered with a cover slip, and samples were viewed using a GFP filter set. For all samples, images were collected using an exposure time of 4 s.

[3] = target: T1, mCATCH(-) peptide, Ac-EQEPEPEPEQE-Am; test: ThT fluorimetry, kinetic
[4] = target: T1, mCATCH(-) peptide, Ac-EQEPEPEPEQE-Am; test: ThT fluorimetry, equimolar mixture
Method: as §1, §2

[5] = target: the molecule itself; test: TEM and circular dichroism of the peptide alone (self-assembly)

B1: no binding [1]; no binding [2].

B2: no binding [3].

B3: no binding [4]; no binding [5].
